Data reported in the DeepSol protein solubility set.

test: soluble on expression in E. coli; label from the status in PepcDB or PDB records

Soluble on expression in E. coli, not soluble:
MESKIPAIEKHRDAYVKIRIIESLDELALGLKLLKEGFSRNSANKVFQSWKAIISALTVINLEKMPRNEKEKEWYYKSGFLAPTTGLKGISQRLEELGYKVNSLTSVALELHRYAYNGLYKGASDYYEREEAINDIIYLSKEIMKVIKEFFKEYWDEEIEEHYNLAEKELMKLEHHHHHH
MTTAVQPSDTTGFGGGPAGSRASDLIQFQEIMSESAESSSSSSQTNVSAANTLPRESNGQNYADDPSHVYTNIREIEELNSRPVPPTPRADAQPRRDLLNGWFEYETDVGRTFFFNKETGKSQWIPPRFIRTPAQVQEFLRATRTNLDTTCSFQGSSTSSSEEQKENKMRESLADDDRKSQLIEDEEVFDEVCDDVDEQSSPVIDLQSRPLPIPFSDSFTDDEDEDDVKPIEGSIASDSDFDEEPVPTSSRKASTASGVMMPHPYAHVSSFQSTFPRAKNEDTDKLASYVIPPDANETSKTPTAIRVRRPSPTNLRSVSFQNKCTVLKNVPMPQVLPTTSSSFDHHPQYHSNTPDRPILMEDSADFTPSSRCEERRGSGDGREPVRTIRCGDLERSENDEPAEKVVKPKKREWITNYMYLTTAHLILYKDQKSAEKHGKHYDAPQGVWDLRGASVTWYQDNRDVQKKKQRKYIQLELCNTKKYLLRGPNDTEAVEWYKSLEEVVAKLPSPGSSNQPMIDVTNGVARNPSYIGSTRPLSHALIPISRSMRRRDDPMSQSAIETVSTSVSTDEPRPSKETIIEKLRRFFRTRPTVESLKEKGIYKPEPVFGSTLSAICQHENSLVPKFIRVITEVIESKGLETDGIYRVSGNLSAVQKIRCQADQDNYKALVSEEDIHVLTGALKLFFRELTDPLFPISLHKEYTSAMQMPNATTRFKKFEELLSRLPNENRETLKMLLRHLNRVASHSSQNRMQQHNLAIVFGPTLFHNGDGAVNLATKNKKAGKKAKPSKKEETQATPVQSNSHLAFSMIMQSQIVQYLLESANKFDILKAPVNIGR
MESTLSLQANLYPRLTPAGAFYAVSSDAPSAGKTLLHSLLKADADEMVSSEKLLTWADTADIDTALNLLYRLQKLEFLYGDENGHSDGINLSDEQLPLLMEQLSGSGKALLVDRNGLYLANANFHHEAAEELGLLAAEVAQMEKKYRLLIKNNLYINNNAWGVCDPSGQSELTFFPLYIGSTKFILVIGGIPDLGKEAFVTLVRILYRRYSNRV
MKHSNKPYDSFQDELEDYIKVQKARGLEPKTCFRRMRGEYLESCGYREEFDSRPRYRMFDQRLPSGTNHSYPRSCSSSQTEDRVPQWLPAHDKIRLNSLSYCQFTRDGFSEKPVPLNLSQQEYNCGSYSVESVVHKRLCSEHSTIDPQVSHRQMHQKRKKHVEEGREKQEERPKHERKRSSEEMDLNKHRSIQRKKTKAETETVQDGTEKLKNRKEKKTRDVSSKKEDRKRRKEKKEQGEERTEEEMLWDQSILGF

Soluble on expression in E. coli, soluble:
SSENLDKSNVNEAGKSKSNDSEEGLEDAVEGADEALQKAIKSDSSSPQRVQRPHSSPPRFVTVEELLETARGVTNMALAHEIVVNGDFQIKPVELPENSLKKRVKEIVHKAFWDCLSVQLSEDPPAYDHAIKLVGEIKETLLSFLLPGHTRLRNQITEVLDLDLIKQEAENGALDISRLAEFIIGMMGTLCAPARDEEVKKLKDIKEIVPLFREIFSVLDLMKVDMANFAISSIRPHLMQQSVEYERKKFQEILERQPNSLDFVTQWLEEASEDLMTQKYKHALPVGGMAAGSGDMPRLSPVAVQNYAYLKLLKWDHLQRPFPETVLMDQSRFHELQLQLEQLTILGAVLLVTFSMAAPGISSQADFAEKLKMIVKILLTDMHLPSFHLKDVLTTIGEKVCLEVSSCLSLCGSSPFTTDKETVLKGQIQAVASPDDPIRRIMESRILTFLETYLASGHQKPLPTVPGGLSPVQRELEEVAIKFARLVNYNKMVFCPYYDAILSKILVRS
MSLDAGRHRVALLVPLTGANAAVGQSIANAATMALLDTNAANMRITTYDTASGAGSAASRAISDGNKLILGPLLGNDVVLVSNVARPAKVPMITYSNDSAVASRDVFVMGQAPGQSVARVLGFAKSKGIGSVAAIIPTGDYGQRAMNAVVDSGRALGVTVTAIETYDRGNTSVASAVRRVKEKGRFDALLIADGSRIALQAAPLAGKGVKLLGTELWSGEAAIAKSPATRGSWFAAVSDGRFGQFEKSYRTRFGATPSRLATLGYDSVLLTLNVARNWKPGTTFPTAKLYDPQGFIGLDGVFRFTASGMAERAMEVREVGAGTFTTVSPAEGHHHHHH
VPGVWSPPCPTTPRVGVVAALVAATLTGCGSGDSTVAKTPEATPSLSTAHPAPPSSEPSPPSATAAPPSNHSAAPVDPCAVNLASPTIAKVVSELPRDPRSEQPWNPEPLAGNYNECAQLSAVVIKANTNAGNPTTRAVMFHLGKYIPQGVPDTYGFTGIDTSQCTGDTVALTYASGIGLNNVVKFRWNGGGVELIGNTTGG
